Blank lines part the entries; values can stand above or below the substance they belong to. Bridges are numbered along the chain shown (N, C = ends). Where no end group is shown, it is not given here. [ ]: non-standard residue; d: D form.
What was measured:
AT2 receptor = molecular target: T1, AT2 receptor (Homo sapiens, UniProt P50052); assay: Inhibition of peptide-induced ERK phosphorylation by AT2 receptor antagonist PD123319 in HBE cells; assay type: cell-based; settings: for inhibition of peptide-induced ERK1 phosphorylation by PD123319 / inhibition of peptide-induced ERK2 phosphorylation by PD123319 / inhibition of peptide-induced (total) Erk phosphorylation by PD123319 / inhibition of peptide-induced ERK phosphorylation (ERK1 and ERK2) by PD123319: 20 min preincubation with 10^-6 M PD123319, peptide 10^-6 M
T1 construct: stimulate extracellular-signal-regulated kinase (ERK) phosphorylation in human bronchial epithelial (HBE) cells; endogenous in cells; host or cells: HBE (immortal human bronchial epithelial cell line)
T1 sequence (P50052 1-363): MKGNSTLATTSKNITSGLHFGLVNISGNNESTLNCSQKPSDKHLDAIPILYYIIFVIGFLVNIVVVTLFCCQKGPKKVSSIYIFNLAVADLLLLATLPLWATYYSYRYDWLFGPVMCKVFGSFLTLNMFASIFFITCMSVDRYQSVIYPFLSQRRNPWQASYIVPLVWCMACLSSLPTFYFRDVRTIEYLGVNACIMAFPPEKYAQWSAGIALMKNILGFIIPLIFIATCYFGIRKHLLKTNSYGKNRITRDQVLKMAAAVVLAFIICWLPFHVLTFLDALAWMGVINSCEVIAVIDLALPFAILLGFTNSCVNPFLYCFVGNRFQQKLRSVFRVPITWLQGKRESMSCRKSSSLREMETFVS
Description: (§1) Peptides were purchased from JPT: linear DDRVAIHA (SEQ ID No: 4), dKDRVdCIHC (SEQ ID No: 9), KDRVdCIHC (SEQ ID No: 9), DDRVdCIHC (SEQ ID No: 11), IDRVdCIHC (SEQ ID No: 12), NDRVdCIHC (SEQ ID No: 13), SDRVdCIHC (SEQ ID No: 14), in which dK stands for D-lysine and dC stands for D-cysteine. The AT2 receptor antagonist PD123319 was from Axon Medchem. Studies were performed using the immortal human bronchial epithelial cell line HBE (Cozens A L, et al. 1994 CFTR expression and chloride secretion in polarized immortal human bronchial epithelial cells. Am J Respir Cell Mol Biol 10:38-47). All culture media and supplements, multiwell plates and flasks were from PAA.
(§2) Cell culture. Multi-well plates received 1 ml from a coating solution (for 112 ml: F12 medium 100 ml; bovine serum albumin 10 ml (1 mg/ml); collagen I, Bovine 1 ml (3 mg/ml); human fibronectin 1 ml (1 mg/ml)) and were incubated for 6 hours at 37° C. and 5% CO2. Subsequently the coating solution was discarded and the plates were dried for 2 hours in the laminar flow cabinet. In each 12 well plate 8.10^4 HBE cells were seeded per well followed by incubation for 24 hours at 37° C. and 5% CO2. Cell culture medium was prepared by adding 432.2 ml MEM 199 basic medium to 50 ml […] FCS and 5 ml L-Glutamin (200 mM), 10 ml Penicillin/Streptomycin (10.000 units/ml/10 mg/ml) and 2.8 ml Gentamycin (10 mg/ml). At 85-90% confluency medium was replaced by medium without FCS and growth factors followed by again 24 hours incubation at 37° C. and 5% CO2.
(§3) Erk1 and Erk2 phosphorylation. The medium was removed from each well and was washed once with HBS buffer without calcium and magnesium. The capacity of peptide at 10^−6 M was tested after 20 min preincubation with either 10^−6 M of PD123319 or concomitant controls, followed by washing. Challenges and concomitant controls were performed at 1 ml/well during 10 min. All samples were tested in triplicate. After the challenge 150 μl RIPA buffer (RIPA, TBS, 1% Nonidet P-40, 0.5% sodium deoxycholate, 0.1% SDS, 0.004% sodium azide, 1% PMSF (2 mM final concentration), 1% sodium orthovanadate (1 mM final concentration) and 1% protease inhibitor cocktail) was added to each well. The plates were incubated for 15 minutes at 4° C. The lysed cells were scraped from the surface. The lysate was transferred to 1.5 ml eppendorf cups and centrifuged 5 minutes at 12.700×g to pellet the cell debris. The supernatant was transferred into new cups and of a 5 al sample the total protein content was determined via the DC protein assay according to lowry (Bio-Rad), with BSA used as calibration protein. Protein was separated on gel and blotted with p-ERK mouse monoclonal IgG2a and mouse GAPDH anti-rat IgG1 antibodies and as a second antibody goat anti-mouse IgG-AP. The phosphorylated Erk proteins and GAPDH were stained with BCIP/NBT and quantified relative to GAPDH and total Erk using TotalLab software. Alternatively, total Erk phosphorylation was measured after permeabilization of the non-detached cells.
In this example it is investigated whether or not cAng-(1-7) analogs with an N-terminal extension of two amino acids stimulate the AT2 receptor.
Thioether bridged peptide synthesis and cell culture and measurement of Erk1- and total Erk phosphorylation were essentially as in example 2.

[1] = tested on: precontracted aorta rings; assay: Vasodilation on phenylephrine-precontracted aorta rings (organ bath); set-up: species or system Sprague Dawley rat; settings: sub-nM concentration; peptides added cumulatively 0.1 nM to 1 μM; rings precontracted with 30 nM phenylephrine
Description: Peptides: KDRVdCIHC (SEQ ID No: 9), and YDRVdCIHC (SEQ ID No: 10) wherein dC stands for D-cysteine were purchased from JPT. Specified pathogen-free male Sprague Dawley rats (SD) (Harlan, Zeist, The Netherlands), weighing […] were used. Prior to the experiment, the animals were housed together with free access of tap water and solid chow (Harlan, Zeist, The Netherlands) in a temperature and humidity controlled room and a 12/12 h light/dark cycle. All protocols described were approved by the University of Groningen Committee for Animal Experimentation.
Thioether-bridged peptides were obtained from the disulfide bridged peptide via base-asisted sulfur extrusion as previously (Galande A K, et al 2003. Biopolymers 71:534-551).
(§4) Vasodilation on precontracted aorta-rings. Arterial rings for organ bath experiments were prepared as described previously (Kluskens L D, et al. 2009. J Pharmacol Exp Ther 328:849-54). Before testing the vasodilating effects of the peptides the rings were precontracted to 50% of their maximum contraction level with 30 nM phenylephrine (PE). The 5,8 thioether bridged peptides KDRV[AIHA]C (SEQ ID No: 3) or YDRV[AIHA]c (SEQ ID No: 5) were added cumulatively in a range of 0.1 nM to 1 μM. Vasodilation data are represented as percentage of relaxation of 30 nM PE contraction.

Mas receptor = molecular target: T2, Mas receptor (Rattus norvegicus, UniProt P12526); assay: Peptide-induced vasodilation of precontracted aorta rings in presence of Mas receptor antagonist D-Pro7-Ang-(1-7); set-up: species or system Sprague Dawley rat; settings: D-Pro7-Ang-(1-7) 0.1 μM, 10 min before 30 nM PE
T2 construct: vasodilation in precontracted aorta rings from Sprague Dawley rats; from tissue; host or cells: aorta rings of male Sprague Dawley rats
T2 sequence (P12526 1-324): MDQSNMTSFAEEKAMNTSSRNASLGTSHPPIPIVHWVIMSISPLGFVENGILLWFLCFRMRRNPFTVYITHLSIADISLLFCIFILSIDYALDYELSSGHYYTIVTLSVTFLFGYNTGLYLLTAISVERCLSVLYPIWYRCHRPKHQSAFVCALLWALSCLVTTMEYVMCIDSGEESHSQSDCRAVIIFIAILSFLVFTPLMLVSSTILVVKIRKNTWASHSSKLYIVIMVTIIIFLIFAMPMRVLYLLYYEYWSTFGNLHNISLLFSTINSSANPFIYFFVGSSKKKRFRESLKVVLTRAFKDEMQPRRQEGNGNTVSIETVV
Description: as §4
D-Pro7-ang-(1-7), ang-(1-7) with a D-isomer of proline at position 7, which is a Mas-receptor antagonists, was from JPT and purified by HPLC prior to use. This antagonist was used as in Kluskens et al 2009: 10 min before addition of 30 nM PE at a concentration of 0.1 μM. Other materials and methods were as in example 1.

[2] = tested on: extracellular-signal-regulated kinase (ERK) phosphorylation in human bronchial epithelial (HBE) cells; assay: Peptide-induced Erk1/Erk2/total Erk phosphorylation in HBE cells; assay type: cell-based; settings: peptide 10^-6 M, 10 min challenge
Description: as §1, §2
as §3, with “The lysate was transferred to 1.5 ml eppendorf cups and centrifuged 5 minutes at 12.700×g to pellet the cell debris.” left out, “Protein was separated on gel and blotted with p-ERK mouse monoclonal IgG2a and mouse GAPDH anti-rat IgG1 antibodies and as a second antibody goat anti-mouse IgG-AP.” left out, “cells. […]” for “cells.”

inhibition of peptide-induced vasodilation by Mas receptor antagonist D-Pro7 (Mas receptor): does not inhibit
Substance: Tyr-Asp-Arg-Val-Abu/Ala-Ile-His-Abu/Ala (YDRVAIHA; not fully specified; thioether bridge (lanthionine); cyclic AT2 receptor antagonist) [YcAng-(1-7), cAng-(1-7) N-terminally extended with Tyr]
vasodilation of precontracted aorta rings (percentage of relaxation of 30 nM PE contraction) [1]: significant vasodilating capacity

inhibition of peptide-induced ERK1 phosphorylation by PD123319 (AT2 receptor): inhibited
inhibition of peptide-induced ERK phosphorylation (ERK1 and ERK2) by PD123319 (AT2 receptor): complete
Substance: Ile-Asp-Arg-Val-Abu/Ala-Ile-His-Abu/Ala (IDRVAIHA; not fully specified; thioether bridge (lanthionine); cyclic AT2 receptor antagonist) [IcAng-(1-7)]
peptide-induced Erk1 phosphorylation [2]: induced Erk1 phosphorylation

inhibition of peptide-induced (total) Erk phosphorylation by PD123319 (AT2 receptor): could not be inhibited
Substance: DDRVAIHA (cyclic AT2 receptor antagonist) [reference compound]
peptide-induced (total) Erk phosphorylation [2]: induced Erk phosphorylation

The remaining lines, values behind:

Substance: Asn-Asp-Arg-Val-Abu/Ala-Ile-His-Abu/Ala (NDRVAIHA; not fully specified; thioether bridge (lanthionine); cyclic AT2 receptor antagonist) [N-cAng(1-7)]
interaction with / stimulation of the AT2 receptor (conclusion from PD123319 sensitivity of ERK phosphorylation) (AT2 receptor): did not or hardly interact with the AT2 receptor
inhibition of peptide-induced ERK1 phosphorylation by PD123319 (AT2 receptor): less
inhibition of peptide-induced ERK2 phosphorylation by PD123319 (AT2 receptor): less or absent

Substance: IDDRVAIHA (not fully specified) [reference compound]
inhibition of peptide-induced (total) Erk phosphorylation by PD123319 (AT2 receptor): no inhibition at all
peptide-induced (total) Erk phosphorylation [2]: induced Erk phosphorylation

Substance: Lys-Asp-Arg-Val-Abu/Ala-Ile-His-Abu/Ala (KDRVAIHA; not fully specified; thioether bridge (lanthionine); cyclic AT2 receptor antagonist) [KcAng-(1-7), cAng-(1-7) N-terminally extended with Lys]
vasodilation of precontracted aorta rings (percentage of relaxation of 30 nM PE contraction) [1]: significant vasodilating capacity
inhibition of peptide-induced ERK phosphorylation (ERK1 and ERK2) by PD123319 (AT2 receptor): complete
inhibition of peptide-induced vasodilation by Mas receptor antagonist D-Pro7 (Mas receptor): does not inhibit

Substance: ScAng-(1-7): thioether bridged cAng-(1-7) with Ser at position -1, made from SDRVdCIHC (SEQ ID No: 14) (SDRV[dC]IHC; bridge 5-8; not fully specified (bridges); also: thioether formed from the disulfide precursor by sulfur extrusion)
interaction with / stimulation of the AT2 receptor (conclusion from PD123319 sensitivity of ERK phosphorylation) (AT2 receptor): did not or hardly interact with the AT2 receptor
inhibition of peptide-induced ERK1 phosphorylation by PD123319 (AT2 receptor): less
inhibition of peptide-induced ERK2 phosphorylation by PD123319 (AT2 receptor): did not affect
inhibition of peptide-induced ERK2 phosphorylation by PD123319 (AT2 receptor; listed as Ser): less or absent

Substance: Asp-Asp-Arg-Val-Abu/Ala-Ile-His-Abu/Ala (DDRVAIHA; not fully specified; thioether bridge (lanthionine); cyclic AT2 receptor antagonist) [DcAng-(1-7)]
inhibition of peptide-induced ERK1 phosphorylation by PD123319 (AT2 receptor): inhibited
inhibition of peptide-induced ERK phosphorylation (ERK1 and ERK2) by PD123319 (AT2 receptor): complete
peptide-induced Erk1 phosphorylation [2]: induced Erk1 phosphorylation
